The record followed here is US20030091594A1 (University of Pennsylvania, published 2003).

The target of experiment [1] is T1, HIV-1/IIIB (HXBc2) gp120 pre-incubated with soluble CD4 (HIV-1).
T1 construct: also called HXB/CD4; HIXB/CD4
The experiment can be described thus: 125I-gp120 binding to transfected 293T cells, with sCD4.

Experiment [2] concerns the target T1, HIV-1/IIIB (HXBc2) gp120 pre-incubated …. The experiment can be described thus: cell-surface binding of 125I-gp120 with sCD4 to 293T cells transfected with CCR5.

B1: human CXCR4 (receptor)
chain: MEGISIYTSDNYTEEMGSGDYDSMKEPCFREENANFNKIFLPTIYSIIFLTGIVGNGLVILVMGYQKKLRSMTDKYRLHLSVADLLFVITLPFWAVDAVANWYFGNFLCKAVHVIYTVNLYSSVLILAFISLDRYLAIVHATNSQRPRKLLAEKVVYVGVWIPALLLTIPDFIFANVSEADDRYICDRFYPNDLWVVVFQFQHIMVGLILPGIVILSCYCIIISKLSHSKGHQKRKALKTTVILILAFFACWLPYYIGISIDSFILLEIIKQGCEFENTVHKWISITEALAFFHCCLNPILYAFLGAKFKTSAQHALTSVSRGSSLKILSKGKRGGHSSVSTESESSSFHSS
notes: whole, on cells
Consider B1, for which the binding result in experiment [1] is given as “binds”.

B2: human CCR5 (receptor)
chain: not shown
notes: whole, on cells
In the case of B2, the binding result in experiment [2] was “no binding”.
